Measurements taken from patent US11352401.

Target: T1, HLA-A*01 (human)
T1 construct: MHC monomer made peptide-receptive by UV cleavage of a UV-sensitive ligand; also called peptide-receptive MHC class I monomer
Assay: UV peptide-exchange ELISA; ++++ = yield >75%
Source text: Candidate peptides for T cell based therapies according to the present invention were further tested for their MHC binding capacity (affinity). The individual peptide-MHC complexes were produced by UV-ligand exchange, where a UV-sensitive peptide is cleaved upon UV-irradiation, and exchanged with the peptide of interest as analyzed. Only peptide candidates that can effectively bind and stabilize the peptide-receptive MHC molecules prevent dissociation of the MHC complexes. To determine the yield of the exchange reaction, an ELISA was performed based on the detection of the light chain (β2m) of stabilized MHC complexes. The assay was performed as generally described in Rodenko et al. (Rodenko et al., 2006).
96 well MAXISorp plates (NUNC) were coated over night with 2 ug/ml streptavidin in PBS at room temperature, washed 4× and blocked for 1 h at 37° C. in 2% BSA containing blocking buffer. […] Peptide-MHC monomers of the UV-exchange reaction were diluted 100-fold in blocking buffer. Samples were incubated for 1 h at 37° C., washed four times, incubated with 2 ug/ml HRP conjugated anti-β2m for 1h at 37° C., washed again and detected with TMB solution that is stopped with […]. Absorption was measured at 450 nm.

peptide exchange yield [%] | Binder
> 75 | ASEAEMRLFY [ASEAEMRLFY (SEQ ID NO: 394)]
> 75 | LTEDKETLQY [LTEDKETLQY (SEQ ID NO: 420)]
> 75 | VTAQVVGTERY [VTAQVVGTERY (SEQ ID NO: 446)]
> 75 | VTEFSLNTY [VTEFSLNTY (SEQ ID NO: 193)]
> 75 | STDPWIQMAY [STDPWIQMAY (SEQ ID NO: 180)]
> 75 | VSDSECLSRY [VSDSECLSRY (SEQ ID NO: 189)]
> 75 | ETEEGIYWRY [ETEEGIYWRY (SEQ ID NO: 405)]
> 75 | TLEDIATSHLY [TLEDIATSHLY (SEQ ID NO: 183)]
> 75 | SADDIRGIQSLY [SADDIRGIQSLY (SEQ ID NO: 174)]
> 75 | YLDPVQRDLY [YLDPVQRDLY (SEQ ID NO: 198)]
> 75 | ILDEVIMGY [ILDEVIMGY (SEQ ID NO: 412)]
> 75 | ASEASRLAHY [ASEASRLAHY (SEQ ID NO: 395)]
> 75 | ISDRYYTALY [ISDRYYTALY (SEQ ID NO: 413)]
> 75 | RTEFNLNQY [RTEFNLNQY (SEQ ID NO: 173)]
> 75 | GTELLSLVY [GTELLSLVY (SEQ ID NO: 150)]
> 75 | ETARKFLYY [ETARKFLYY (SEQ ID NO: 404)]
> 75 | NLDAVHDITVAY [NLDAVHDITVAY (SEQ ID NO: 423)]
> 75 | QTDDTWRTEY [QTDDTWRTEY (SEQ ID NO: 435)]
> 75 | DSDSCHFNY [DSDSCHFNY (SEQ ID NO: 138)]
> 75 | RSDPVTLNVLY [RSDPVTLNVLY (SEQ ID NO: 171)]
> 75 | TSDSNLNKY [TSDSNLNKY (SEQ ID NO: 185)]
> 75 | LLDTAQKNLY [LLDTAQKNLY (SEQ ID NO: 416)]
> 75 | ATSKFMEFY [ATSKFMEFY (SEQ ID NO: 137)]

peptide exchange yield [%] | Binder
> 75 | ATDIPCLLY [ATDIPCLLY (SEQ ID NO: 399)]
> 75 | LLDPNPHMY [LLDPNPHMY (SEQ ID NO: 155)]
> 75 | RSDDTAVYY [RSDDTAVYY (SEQ ID NO: 170)]
> 75 | GSDHQSPSSSSY [GSDHQSPSSSSY (SEQ ID NO: 410)]
> 75 | STDGKHWWEY [STDGKHWWEY (SEQ ID NO: 437)]
> 75 | GTEFTTILY [GTEFTTILY (SEQ ID NO: 148)]
> 75 | GTEFTTVLY [GTEFTTVLY (SEQ ID NO: 149)]
> 75 | LMDRPIFY [LMDRPIFY (SEQ ID NO: 157)]
> 75 | YVDAVLGKGHQY [YVDAVLGKGHQY (SEQ ID NO: 452)]
> 75 | MIDVTKSYY [MIDVTKSYY (SEQ ID NO: 422)]
> 75 | NSELSCQLY [NSELSCQLY (SEQ ID NO: 428)]
> 75 | FVDPLVTNY [FVDPLVTNY (SEQ ID NO: 409)]
> 75 | LSDLLKQGY [LSDLLKQGY (SEQ ID NO: 158)]
> 75 | ASEDSVLLY [ASEDSVLLY (SEQ ID NO: 135)]
> 75 | AAEIGDKSWLY [AAEIGDKSWLY (SEQ ID NO: 134)]
> 75 | YLDRGTGNVSFY [YLDRGTGNVSFY (SEQ ID NO: 449)]
> 75 | FSDNDKLYLY [FSDNDKLYLY (SEQ ID NO: 407)]
> 75 | YSDDGQKWTVY [YSDDGQKWTVY (SEQ ID NO: 450)]
> 75 | QIDTGENLY [QIDTGENLY (SEQ ID NO: 433)]
> 75 | ASEITSKGASLY [ASEITSKGASLY (SEQ ID NO: 397)]
> 75 | LSDTSVIQFY [LSDTSVIQFY (SEQ ID NO: 159)]
> 75 | NTSDMMGRMSY [NTSDMMGRMSY (SEQ ID NO: 431)]
> 75 | LLEDKHFQSY [LLEDKHFQSY (SEQ ID NO: 417)]

peptide exchange yield [%] | Binder
> 75 | YSDEDVTKY [YSDEDVTKY (SEQ ID NO: 200)]
> 75 | DSDESYMEKSLY [DSDESYMEKSLY (SEQ ID NO: 401)]
> 75 | YSDSLVQKGY [YSDSLVQKGY (SEQ ID NO: 451)]
> 75 | TLDSALNAASYY [TLDSALNAASYY (SEQ ID NO: 441)]
> 75 | TTDFPSESSFEY [TTDFPSESSFEY (SEQ ID NO: 443)]
> 75 | VTEESFDSKFY [VTEESFDSKFY (SEQ ID NO: 192)]
> 75 | QTDCAPNNGY [QTDCAPNNGY (SEQ ID NO: 434)]
> 75 | TSDFSRFTNY [TSDFSRFTNY (SEQ ID NO: 442)]
> 75 | STAKSATWTY [STAKSATWTY (SEQ ID NO: 179)]
> 75 | QTDHPQPILDRY [QTDHPQPILDRY (SEQ ID NO: 168)]
> 75 | SSDEVNFLVY [SSDEVNFLVY (SEQ ID NO: 177)]
> 75 | LSELKPMSY [LSELKPMSY (SEQ ID NO: 419)]
> 75 | YVGKEHMFY [YVGKEHMFY (SEQ ID NO: 201)]
> 75 | NSDEQKITEMVY [NSDEQKITEMVY (SEQ ID NO: 427)]
> 75 | RLDTPLYFSY [RLDTPLYFSY (SEQ ID NO: 169)]
> 75 | NLDIIQQEY [NLDIIQQEY (SEQ ID NO: 425)]
> 75 | GTVYEDLRY [GTVYEDLRY (SEQ ID NO: 411)]
> 75 | LTELLERAAFY [LTELLERAAFY (SEQ ID NO: 421)]
> 75 | NTEDSSMSGYLY [NTEDSSMSGYLY (SEQ ID NO: 429)]
> 75 | NTEGLHHLY [NTEGLHHLY (SEQ ID NO: 430)]
> 75 | QTETGTPYMLY [QTETGTPYMLY (SEQ ID NO: 436)]
> 75 | ASEFGNHYLY [ASEFGNHYLY (SEQ ID NO: 396)]
